T1: chicken egg white ovalbumin (chicken, UniProt P01012 1-386)
T1 construct: Printed on the microarray at 0.5 mg/mL; source: bought: Sigma-Aldrich
T1 sequence (looked up): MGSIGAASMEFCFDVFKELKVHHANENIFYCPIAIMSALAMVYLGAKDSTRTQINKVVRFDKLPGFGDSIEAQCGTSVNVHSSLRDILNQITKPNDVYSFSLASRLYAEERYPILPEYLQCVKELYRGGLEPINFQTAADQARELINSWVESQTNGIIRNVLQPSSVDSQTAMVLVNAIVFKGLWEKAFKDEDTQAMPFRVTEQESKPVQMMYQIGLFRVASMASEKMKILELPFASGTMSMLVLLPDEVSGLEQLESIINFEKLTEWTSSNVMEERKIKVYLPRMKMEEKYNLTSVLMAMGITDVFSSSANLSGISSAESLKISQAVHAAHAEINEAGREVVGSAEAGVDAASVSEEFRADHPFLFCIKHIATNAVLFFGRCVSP

T2: Phaseolus vulgaris leucoagglutinin (Phaseolus vulgaris, UniProt P05087 21-272, TRITC label)
T2 construct: Phaseolus vulgaris leucoagglutinin; also called PHA-L; source: bought: EY Laboratories or Vector Laboratories (TRITC-labelled)
T2 sequence: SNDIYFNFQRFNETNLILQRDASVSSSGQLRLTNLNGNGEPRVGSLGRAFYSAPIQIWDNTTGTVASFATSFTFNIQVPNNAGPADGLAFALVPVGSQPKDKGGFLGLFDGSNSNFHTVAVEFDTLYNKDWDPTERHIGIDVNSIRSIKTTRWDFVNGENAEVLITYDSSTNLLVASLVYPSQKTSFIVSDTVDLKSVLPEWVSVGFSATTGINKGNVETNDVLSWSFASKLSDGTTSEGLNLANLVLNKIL

B1: Phaseolus vulgaris erythroagglutinin (natural protein)
chain: ASQTSFSFQRFNETNLILQRDATVSSKGQLRLTNVNDNGEPTLSSLGRAFYSAPIQIWDNTTGAVAASPTSFTFNIDVPNNSGPADGLAFVLLPVGSQPKDKGGLLGLFNNYKYDSNAHTVAVEFDTLYNVHWDPKPRHIGIDVNSIKSIKTTTWDFVKGENAEVLITYDSSTKLLVASLVYPSLKTSFIVSDTVDLKSVLPEWVIVGFTATTGITKGNVETNDILSWSFASKLSDGTTSEALNLANFALNQIL
modifications: TRITC label
notes: Phaseolus vulgaris erythroagglutinin; also called PHA-E; source: bought: EY Laboratories or Vector Laboratories (TRITC-labelled)

Key:
Test in all cases: peptide or protein array
Details in all cases: both partners purified
[1] = biological target: T1, chicken egg white ovalbumin
[2] = biological target: B1
[3] = biological target: T2, Phaseolus vulgaris leucoagglutinin

| Binder | binding result [1] | binding result [2] | binding result [3] |
| --- | --- | --- | --- |
| B1 | binds |  |  |
| chicken egg white ovomucoid (natural protein, UniProt P01005 25-210, looked up, Printed on the microarray at 0.5 mg/mL; also called OVM; source: bought: Sigma-Aldrich) AEVDCSRFPNATDKEGKDVLVCNKDLRPICGTDGVTYTNDCLLCAYSIEFGTNISKEHDGECKETVPMNCSSYANTTSEDGKVMVLCNRAFNPVCGTDGVTYDNECLLCAHKVEQGASVDKRHDGGCRKELAAVSVDCSEYPKPDCTAEDRPLCGSDNKTYGNKCNFCNAVVESNGTLTLSHFGKC |  | binds | binds |

— paper PMC5526940 (Scientific Reports, 2017)
